Experimental data as given in US20210063414A1, “METHODS FOR PREVENTING AND/OR TREATING BONE LOSS CONDITIONS BY MODULATING IRISIN” (Dana-Farber Cancer Institute, Inc., priority 2018, published 2021).

System: MLO-Y4 cells
Assay: Integrin-like signaling (pFAK, pZyxin, pAKT, pCREB) in MLO-Y4 cells, immunoblot
Format: cell-based
Protocol: Integrin heterodimer binds to its ligand. The interaction results in phosphorylation of FAK and Zyxin, followed by phosphorylation of AKT (at T308) and CREB. PM is plasma membrane. FIG. 2C and FIG. 2D show the immunoblots. MLO-Y4 cells were seeded and incubated until 60% cell density. The cells were incubated with serum free medium (FreeStyle™ 293 medium) for 4 hours and were treated for indicated time with 10 nM norepinephrine or irisin (FIG. 2C) or indicated concentrations of irisin for 10 minutes (FIG. 2D). Cells were lysed to detect the indicated protein level using immunoblot analysis.
Certain materials and methods were used to generate the results described herein. For example, the data shown in FIG. 1A resulted from MLO-Y4 (an osteocyte-like cell line) cells treated with the indicated concentration of irisin and hydrogen peroxide for 4 hours. Cells were stained with Hoechst 33342 (ThermoFisher Scientific, catalog number H3570) and Eth-D1 (ThermoFisher Scientific, catalog number E1169) and analyzed to determine the percentage of cell death using ImageJ. The data shown in FIG. 2D resulted from MLO-Y4 incubated in serum free medium (FreeStyle™ 293 expression medium, ThermoFisher Scientific, catalog number 12338018) for 4 hours followed by treatment of indicated concentrations of irisin for 10 minutes. Cells were lysed to detect the indicated protein level using immunoblot analysis (Cell Signaling Technology, catalog numbers 3283S, 3285S, 8467S, 3553S, 9198S, and 9104S; Abcam, catalog number ab49900-100ul). The data shown in FIG. 3 resulted from 3T3-F442A cells incubated in serum free medium for 4 hours followed by treatment of indicated concentrations of irisin for 10 minutes. Cells were lysed by RIPA buffer to detect the indicated protein level using immunoblot analysis. The data shown in FIG. 4 were generated from 100 nM flag-tagged irisin (Enzo life sciences, catalog number ADI-908-307-3010) incubated with 5 nM of the indicated 6 his-tag integrins (R & D Systems Inc., catalog numbers 7064-AB-025, 5668-A4-050, 5438-A9-050, 6357-AB-050, and 6579-AV-025) in the presence of RGDS peptide (R & D Systems Inc., catalog number 3498/10) or its control peptide (Enzo Life Sciences, catalog Number BML-P701-0005) followed by immunoprecipitation using 6 his-tag beads (ThermoFisher Scientific, catalog number R901-01). Co-precipitated irisin was analyzed by immunoblot analysis against flag tag (Sigma Aldrich, catalog number A8592). The data shown in FIGS. 5A and 5B were generated from MLO-Y4 cells treated and analyzed as in the experiments used to generate the data shown in FIG. 2D, except that pre-treatment of 100 nM RGDS (FIG. 5A) or echistatin (R & D Systems Inc., catalog number 3202/100U) (FIG. 5B) for 10 minutes was performed before irisin treatment. The data shown in FIGS. 6A and 6B were generated from MLO-Y4 cells incubated in serum free medium for 3 hours followed by treatment of indicated time of 10 nM irisin for 16 hours. RNAs were extracted from the cells and the sclerostin mRNA level was analyzed by qPCR (FIG. 6A) or treated and analyzed as in (FIG. 6A), except that pre-treatment of 10 μM RGDS, RGDyK (Selleck, catalog number S7844), or echistatin was performed for 10 minutes before irisin treatment. The data shown in FIGS. 7A and 7B were generated from 8 week-old mice injected with the indicated dose of irisin for 6 days. Tibias were collected and treated with collagenase to obtain mRNA from the osteocyte-enriched bones. Sclerostin mRNA level was analyzed by qPCR (FIG. 7A). Serum was collected to analyze the sclerostin protein level using ELISA kit (R&D Systems Inc., catalog number MSST00) (FIG. 7B). The data shown in FIG. 8 were generated from 8 week-old mice injected with the indicated dose of irisin for 6 days. Epididymal fats were collected, RNAs were extracted from the tissues, and mRNA levels of the indicated genes were analyzed by qPCR. […]

B1: irisin: secreted cleaved form of FNDC5; recombinant human/mouse irisin with C-terminal his tag produced in HEK293 cells (protein)
chain: DSPSAPVNVTVRHLKANSAVVSWDVLEDEVVIGFAISQQKKDVRMLRFIQEVNTTTRSCALWDLEEDTEYIVHVQAISIQGQSPASEPVLFKTPREAEKMASKNKDEVTMKE
modifications: left off: small tags and cut ends
notes: secreted cleaved form of FNDC5; recombinant human/mouse irisin with C-terminal his tag produced in HEK293 cells
With B1 the “phosphorylation of AKT on threonine 308” value (MLO-Y4, 10 nM irisin) was “phosphorylated on threonine 308”, the “phosphorylation of AKT serine at amino acid 473” value (MLO-Y4, 10 nM irisin) was “not induced” and the “time after which CREB was phosphorylated” value (MLO-Y4, 10 nM irisin) was 5 min. The “time to phosphorylation of FAK” value (MLO-Y4, 10 nM irisin) was 1 min, the “phosphorylation of Zyxin” value (MLO-Y4, irisin dose response, 10 minutes) was “phosphorylated potently” and the “irisin dose as low as which induced phosphorylation of FAK” value (MLO-Y4, serum free medium 4 hours, irisin 10 minutes) was 10 pM.
